In patent US20220089663A1, “PROTEINS AND FLUOROPHORE-CONTAINING COMPOUNDS SELECTIVE FOR NaV1.7” (MEMORIAL SLOAN KETTERING CANCER CENTER, priority 2019, published 2022):

Experiments:
Assay in all cases: cell-based or functional assay
hNav1.5 (human) = hNav1.5 (human) (UniProt Q14524)
hNav1.3 (human) = hNav1.3 (human) (UniProt Q9NY46)
hNav1.1 (human) = hNav1.1 (human) (UniProt P35498)
hNav1.7 (human) = hNav1.7 (human) (UniProt Q15858)
hNav1.6 (human) = hNav1.6 (human) (UniProt Q9UQD0)
hNav1.4 (human) = hNav1.4 (human) (UniProt P35499)
hNav1.2 (human) = hNav1.2 (human) (UniProt Q99250)

Substance | fold selectivity of hNav1.7 over this channel (hNav1.5 (human)) [fold] | pIC50, whole-cell patch clamp (QPatch 16X) (hNav1.5 (human)) [M] | fold selectivity of hNav1.7 over this channel (hNav1.3 (human)) [fold] | pIC50, whole-cell patch clamp (QPatch 16X) (hNav1.3 (human)) [M] | fold selectivity of hNav1.7 over this channel (hNav1.1 (human)) [fold] | pIC50, whole-cell patch clamp (QPatch 16X) (hNav1.1 (human)) [M] | pIC50, whole-cell patch clamp (QPatch 16X) (hNav1.7 (human)) [M] | recovery of currents after washout (hNav1.7 (human)) [min] | fold selectivity of hNav1.7 over this channel (hNav1.6 (human)) [fold] | pIC50, whole-cell patch clamp (QPatch 16X) (hNav1.6 (human)) [M] | fold selectivity of hNav1.7 over this channel (hNav1.4 (human)) [fold] | pIC50, whole-cell patch clamp (QPatch 16X) (hNav1.4 (human)) [M] | fold selectivity of hNav1.7 over this channel (hNav1.2 (human)) [fold] | pIC50, whole-cell patch clamp (QPatch 16X) (hNav1.2 (human)) [M] | IC50, automated whole-cell patch clamp (hNav1.7 (human)) [nM]
synthetic Hsp1a (peptide) | > 100 | < 6 | > 100 | < 6 | 40 | 6.39 | 7.98 | 10 | > 100 | < 6 | > 100 | < 6 | 28 | 6.52 | 
µ-theraphotoxin-Hsp1a (peptide) |  |  |  |  |  |  |  |  |  |  |  |  |  |  | 13
